Molecular target: the molecule itself
Experiment: dynamic light scattering (DLS); 50 µM S100A1, 37 °C, without divalent metal ions or with 0.5-10 mM Ca2+ or Zn2+; hydrodynamic diameter (volume distribution); monomer to dimer

B1: S100A1 (natural protein, human)
chain: GSELETAMETLINVFHAHSGKEGDKYKLSKKELKELLQTELSGFLDAQKDVDAVDKVMKELDENGDGEVDFQEYVVLVAALTVACNNFFWENS
modifications: N-formylmethionine (fMet) at the N-terminus
notes: theoretical mass 10,545.5 Da, measured 10,571.2 ± 1.4 Da (fMet at the N-terminus); also called recombinant S100A1; human S100A1; source: residual Ca2+ removed
  stoichiometry N: 2
